According to patent US20180369425A1, “LINKED AND OTHER pH-TRIGGERED COMPOUNDS” (priority 2017, published 2018):
Residues, ends and D or L forms follow the SMILES beside them. *: point of attachment. X1 = CC1(C)C(/C=C/C=C/C=C/C=C2/N(CCCCCC(=O)NCCN3C(=O)CC(*)C3=O)c3ccc4ccccc4c3C2(C)C)=[N+](CCCCS(=O)(=O)[O-])c2ccc3ccccc3c21

Columns and labels:
[1] = system: red blood cells (RBCs); assay: Hemolysis assay with ICG-pHLIP; assay type: cell-based, human; details: 0.075 to 1.2 nmol in 150 μL, 37° C., 2 hours
Description: Single donor human whole blood was purchased from Innovative Research. Red blood cells (RBCs) were collected by centrifugation of whole blood at 2000 rpm for 10 minutes followed by washing three times with Dulbecco's PBS (DPBS) and re-suspended in DPBS at a concentration of 7.5% (v:v). Varying concentrations of ICG-pHLIP (0.075, 0.15, 0.3, 0.6, 1.2 nmol) in DPBS were added to RBCs to give a 5% RBC suspension (total volume of solution with RBC was 150 μL). The resultant mixtures were incubated at 37° C. for 2 hours and then centrifuged at 2000 rpm for 10 min. Hemolysis was assessed by the release of hemoglobin, which was monitored by measuring the absorbance at 450 nm of the supernatant hemoglobin. DPBS was used as negative controls. As positive controls, which result in 100% lysis of RBCs, we used i) water and ii) 10% of Triton X-100. The percentage of hemolysis was calculated as follows: […]
where, ODTest, ODNC, and ODPC are the optical density reading (absorbance) values of the test sample, negative control and positive control, respectively. The assay was performed in triplicate. The amount of RBC lysis was less than 2% in all samples. For the reference, in mice study 2.5 nmol of ICG pHLIP® is injected per mouse (a 20 g mouse has about 1.2 mL of blood), or 2.08 nmol/ml (the dose will be much lower in humans), while in hemolysis assay the maximum tested concentration was 8 nmol/ml.

[2] = system: Human mammary epithelial cells (HMEpC); assay: Cytotoxicity of ICG-pHLIP; assay type: cell-based; details: 0.125 to 16 μM, 48 and 72 hours
Description: Human mammary epithelial cells (HMEpC) were acquired from Cell Applications Inc, and authenticated, and stored according to supplier's instructions. Cells were cultured in mammary epithelial cell growth medium provided by Cell Applications Inc. HMEpC cells were loaded in the wells of 96-well plates (˜6,000 cells per well) and incubated overnight. The increasing amounts of ICG-pHLIP dissolved in cell growth medium were added to cells to have the following final concentration of ICG-pHLIP with cells: 0.125, 0.25, 0.5, 1, 2, 4, 8 and 16 μM. After 48 and 72 hours of incubation, a colorimetric reagent (CellTiter 96 AQueous One Solution Assay, Promega) was added for 1 hour followed by measuring absorbance at 490 nm to assess cell viability. All samples were prepared in triplicate and each experiment was repeated several times.

`CC(C)C[C@H](NC(=O)[C@H](Cc1ccc(O)cc1)NC(=O)[C@H](C)NC(=O)[C@H](CCCNC(=N)N)NC(=O)[C@H](Cc1c[nH]c2ccccc12)NC(=O)[C@@H]1CCCN1C(=O)[C@H](CC(N)=O)NC(=O)[C@H](CCC(N)=O)NC(=O)[C@H](CC(=O)O)NC(=O)[C@H](CC(=O)O)NC(=O)[C@H](CSC1CC(=O)N(CCNC(=O)CCCCCN2/C(=C/C=C/C=C/C=C/C3=[N+](CCCCS(=O)(=O)[O-])c4ccc5ccccc5c4C3(C)C)C(C)(C)c3c2ccc2ccccc32)C1=O)NC(=O)[C@H](C)N)C(=O)N[C@@H](CC(=O)O)C(=O)N[C@@H](CC(C)C)C(=O)N[C@@H](CC(C)C)C(=O)N[C@@H](Cc1ccccc1)C(=O)N1CCC[C@H]1C(=O)N[C@H](C(=O)N[C@@H](CC(=O)O)C(=O)N[C@H](C(=O)N[C@@H](CC(C)C)C(=O)N[C@@H](CC(C)C)C(=O)N[C@@H](CC(C)C)C(=O)N[C@@H](CC(=O)O)C(=O)N[C@@H](CC(C)C)C(=O)N[C@@H](CC(C)C)C(=O)N[C@@H](Cc1c[nH]c2ccccc12)C(=O)N[C@@H](C)C(=O)O)[C@@H](C)O)[C@@H](C)O` (some centres unmarked) [ICG-pHLIP] (H-AC(X1)DDQNPWRAYLDLLFPTDTLLLDLLWA-OH) was tested, and the RBC lysis [1] was “less than 2%” and the cytotoxic effect [2] was “did not show any cytotoxic effect”.
